Patent publication US20130345115A1

Experiments:
[1] = biological target: (Δ1-28) H4 nucleosome (mononucleosome with FLAG-HA-tagged tailless human H4 lacking the first 28 amino acids) (human; human (293T cells)) (UniProt P62805); assay: MudPIT, co-purification
[2] = biological target: Wild type H4 nucleosome (mononucleosome with FLAG-HA-tagged wild type human H4) (human; human (293T cells)) (UniProt P62805); assay: MudPIT, co-purification

amino acid coverage [1] [%] | peptide count [1] [peptides] | amino acid coverage [2] [%] | peptide count [2] [peptides] | Substance
– | 0 | 5.7 | 3 | EuHMT1 (from UniProt Q9H9B1 2-1298) (enzyme)
16.2 | 2 | 21.2 | 3 | H1 histone family, member 0 (H1F0) (from UniProt P07305 2-194)
16.3 | 8 | 13.4 | 5 | RuvB-like 2 (E. coli) (from UniProt Q9Y230 2-463)
– | – | 4.3 | 3 | SWI/SNF complex 170 KDa subunit (from UniProt Q8TAQ2 1-1214)
19.2 | 9 | 24.9 | 11 | SWI/SNF related, matrix associated, actin dependent regulator of chromatin, subfamily a, member 1 (from UniProt P28370 1-1042)
– | – | 6.6 | 5 | TATA box binding protein-associated factor, 135 kDa (from UniProt O00268 1-1085)
18.8 | 2 | – | – | anti-silencing function 1 homolog B (from UniProt Q9NVP2 1-202)
22.8 | 3 | 17.3 | 2 | chromobox homolog 1 (HP1 beta homolog Drosophila) (from UniProt P83916 1-185)
14.7 | 2 | 13.2 | 2 | chromobox homolog 3 (HP1 gamma homolog, Drosophila) (from UniProt Q13185 2-183)
6.4 | 1 | 8.6 | 1 | histone cluster 1, H1d (HIST1H1D) (from UniProt P16402 2-221)
48.2 | 10 | 55.1 | 11 | macroH2A1.1 and macroH2A1.2 (from UniProt O75367 1-369)
23.8 | 9 | 21.8 | 9 | protein arginine methyltransferase 5 (from UniProt O14744 2-637) (enzyme)
11.9 | 7 | 15.8 | 9 | structure specific recognition protein 1 (from UniProt Q08945 2-709)
1.4 | 1 | 5.1 | 3 | suppressor of zeste 12 homolog (Drosophila) (from UniProt Q15022 1-739)
4.2 | 3 | 7.4 | 5 | topoisomerase (DNA) I (from UniProt P11387 2-765) (enzyme)
– | – | 2.4 | 3 | transcription factor 20 (AR1) (from UniProt Q9UGU0 1-1960)

Further lines, the substance ahead of its results:

Substance | amino acid coverage [1] [%] | peptide count [1] [peptides] | amino acid coverage [2] [%] | peptide count [2] [peptides]
ADP-ribosylation factor 1 (from UniProt P84077 2-181) | 8.8 | 1 | – | –
Histone H2A | 74.1 | 6 | 63.1 | 5
Histone H2B | 59.4 | 5 | 54.7 | 5
Histone H3 | 89.6 | 7 | 82.6 | 6
RAD23 homolog B (S. cerevisiae) (from UniProt P54727 1-409) | 8.9 | 1 | – | –
RuvB-like 1 (E. coli) (from UniProt Q9Y265 1-456) | 21.3 | 8 | 19.1 | 7
SWI/SNF related, matrix associated, actin dependent regulator of chromatin, subfamily a, member 5 (from UniProt O60264 2-1052) | 28.3 | 13 | 20 | 9
Snf2-related CREBBP activator protein (from UniProt Q6ZRS2 1-3230) | 1.9 | 3 | – | –
WD repeat domain 77 (from UniProt Q9BQA1 1-342) | 11.4 | 2 | – | –
X-ray repair complementing defective repair in Chinese hamster cells 5 (from UniProt P13010 2-732) | 5.3 | 2 | 4.4 | 2
X-ray repair complementing defective repair in Chinese hamster cells 6 (from UniProt P12956 2-609) | 3.2 | 1 | 5.7 | 2
chromatin assembly factor 1, subunit A (from UniProt Q13111 1-956) | 4.9 | 3 | 5.5 | 3
chromobox homolog 5 (HP1 alpha homolog, Drosophila) (from UniProt P45973 1-191) | 21.4 | 3 | 21.4 | 3
chromodomain helicase DNA binding protein 4 (from UniProt Q14839 1-1912) | 0.6 | 1 | 1.2 | 2
damage-specific DNA binding protein 1, 127 kDa (from UniProt Q16531 2-1140) | 3.7 | 2 | 5.4 | 3
death-domain associated protein (from UniProt Q9UER7 1-740) | 2.4 | 1 | – | –

Substance | amino acid coverage [1] [%] | peptide count [1] [peptides] | amino acid coverage [2] [%] | peptide count [2] [peptides]
euchromatic histone-lysine N-methyltransferase 2 (G9a) (from UniProt Q96KQ7 2-1210) (enzyme) | – | 0 | 4 | 2
histone H2AX (from UniProt P16104 2-143) | 8.4 | 1 | 13.7 | 2
histone cluster 1, H1a (HIST1H1A) (from UniProt Q02539 2-215) | 11.8 | 2 | 11.2 | 2
histone cluster 1, H1b (HIST1H1B) (from UniProt P16401 2-226) | 12.8 | 2 | 12.5 | 2
histone cluster 1, H1c (HIST1H1C) (from UniProt P16403 2-213) | 12.3 | 2 | 10.3 | 2
histone cluster 1, H1e (HIST1H1E) (from UniProt P10412 2-219) | 11.8 | 2 | 6.2 | 1
histone deacetylase 1 (from UniProt Q13547 1-482) (enzyme) | – | 0 | 12.9 | 5
mediator of DNA-damage checkpoint 1 (from UniProt Q14676 1-2089) | 18.4 | 4 | – | –
metal response element binding transcription factor 2 (from UniProt Q9Y483 1-593) | – | – | 4.6 | 2
methyl CpG binding protein 2 (Rett syndrome) (from UniProt P51608 1-486) | 3.1 | 1 | 12.3 | 5
nucleolin (from UniProt P19338 2-710) | 16.3 | 8 | 12 | 6
poly (ADP-ribose) polymerase 1 (from UniProt P09874 2-1014) (enzyme) | 44.2 | 23 | 41.3 | 21
remodeling and spacing factor 1 (from UniProt Q96T23 1-1441) | 11.7 | 10 | 12.2 | 12
suppressor of Ty 16 homolog (S. cerevisiae) (from UniProt Q9Y5B9 2-1047) | 21.6 | 12 | 17.2 | 12
thyroid hormone receptor-associated protein complex component (from UniProt Q9Y2W1 2-955) | – | – | 3.4 | 2
